# Reference: the DeepSol protein solubility set
# Assay: soluble on expression in E. coli; label from the status in PepcDB or PDB records
row,Sequence,soluble on expression in E. coli
1,MGPRFQPDDTLYKRRNTLKVEYVPDDIVGRDNEIEEYEAALQPIINGEYPDNIFIYGKTGVGKTAVTNFLLNELRESADHFEVDLTVISLNCDGLSTSYQAAISLVNNLRGHENHIAETGHPQSKVYRLLWNELNKLSGSVIIVLDEIDHITDDTFLYQITRADNNGYIDNIQLGVIGISNDSTFREQLDAKVQSSLCETEISFPPYGTEELQKVLEQRAEIAFHESALEDGVIPLCAALGRQDGGDARRAITLLRKAGDLARTENANSVTTDHVERAQEKLEAQQSMDIMRDLTEHEQLTLYALTTLAAEGETPARSRIVYQRYKELCEFQGREPRTARRMRSFLSDFEILNLTLSEMEHRGQDGGTYRQHELNRDIATVVDALQTIIGEFGAHQSIIEYLPDSGEEFATM,not soluble
2,MGSDKIHHHHHHMLRRYRKLGEILLEKGFITREELDKALEIQKEERKPLGEVLIETGYITEDQLLEALSEQYGVPILKELPKNIPLNVVGSIPKNIIESLHVIPVEKKEDGTLVVVTDNGTNIPRIKQEIRFLTGKNPEIYLVTSRDFSVLYQTYVLGVPLELFEEPYVAIEETPEQVEEEEEEEREVEEAPIVRLVNNIVNRAIEMGASDIHIEPMKRTVRVRFRIDGILRKVLEYQKPQHNSVVARIKIMSGLDVSERRLPQDGKFYTIKGGEQYDFRVSTMPSTFGEKVVMRILKVSDANKRLEELGYSEYNLKRILSLLEKPYGIILVTGPTGSGKSTTLVAMINYLKSESVNIVTAEDPVEYTIEGVTQCQVFPEIGLTFARYLRAFLRQDPDIIMVGEIRDRETAQLAVEASLTGHLVLSTLHTNTAAGAVSRLIEMGIDPHLLGASLIGIIGQRLVRKLCDECKMPGEVRDEQVKSYFEQFFGKVPDQIYYPSEEGCPACKGMRYRGRMAIGEVLIVDEELRELISSKASETEIAKLAVKKGMRTMFQDALEKVLLGQTSIEEVFRVTTPL,not soluble
3,MRAVFRTDIGQIREHNEDSGGVFVNQSGQYLAVVADGMGGHRAGDVASSMAVAYLQERWEKESGLASPAEAEQWLKTQIASANEQLFRHALSHPECQGMGTTVVAAVCANSFATVAHIGDSRCYVLNKSGIQQLTDDHSLVNELVKSGQLSKEAAEHHPRKNVLLRALGTEPAVKIDVKTVALDEGDMLLLCSDGLSNKVPEADMIHILTGAGTLEEKAEALIQLANGRGGEDNISLAVIDVSAEREGG,not soluble
4,MILIKNGRVMDPKSQRDQVADVLIDGKQIVKIASAIECQEAQVIDASGLIVAPGLVDIHVHFREPGQTHKEDIHTGALAAAAGGVTTVVMMANTNPVISDVETLQEVLASAAKEKIHIYTNASVTQAFNGKDVTDFKALLEAGAVSFSDDGIPLESSKVLKEAFDLANANQTFISLHEEDPQLNGVLGFNEGIAEEHFHFCGATGVAEYSMIARDVMIAYDRQAHVHIQHLSKAESVQVVAFAQQLGAKVTAEVSPQHFSTTEDLLLIAGTSAKMNPPLRTQRDRLAVIEGLKSGVITVIATDHAPHHKDEKTVDDMTKAPSGMTGLETSLSLGLTHLVEPGHLTLMSLLEKMTLNPALLYGFDAGYLAENGPADLVIFADKQERLITENFASKASNSPFIGNKLKGVVKYTIADGEVVYPN,not soluble
5,MGSDKIHHHHHHMEKLRVIEMIKNNPNIIATIDNPTDEMKLLAIKENGLVLEYINNPTREMQELAIDNNIRAIKFIDNPTEDMMIKAVNEGWSILDYIKNPTDKVIEMAINQAGWAIKYAKNPSEELQLLAVRKNYDSIKFIKQPYESVQEEAVRISYDALRYIDSPSYNAELVAIKNNEAAISFITDLDKNKMLEFLKVNILVIKYILKKVSKDELESVLKEVLSKEDVEEKYIRDFLNCSVIDRNSESIPIDKIMFIYKYGSKTAKKIAVDEKLKIM,not soluble
6,GPGSMYVGCVGKDKHGDQIRSAAEADGTTMELEVSSDKRSGLCVVCRDGNSRTLVVHPSSASSLRDDFVSSAAAQEGQRSAKTVYTTAYASVVRVRQTLQLMTSSRCHTLPDGLKQLAAMGLANQRVLDDFGEGLVDVLGKLDIIIGNPEEMYDLAMMLQWVPSEMSDMVLAKKIATEMMCDRHGVRRVIMTRGAEPIIYAASAGESGEVPVVATCAHSAKLLATGAGDAFAGGFLAAMAAKPDDVAFCCRLSAQAATFMINHSLVTLRTDEACLAELQT,not soluble
7,MVEFRNEVSHQWTRRHTLRKFRAGMLSRDSLCDADFVLVTASKFHGSRVPTPCPVCDSDQLRHVLWVYGESLGRASGSARTMEEIVTFAQSGKEFTVHTVEVCPDCRWNHLLNSVTAMPQ,not soluble
8,MGHHHHHHSHMQVTITLTSPIIREENMREGDVTSGMVKDPPDVLDRQKCLDALAALRHAKWFQARANGLQSCVIIIRILRDLCQRVPTWSDFPSWAMELLVEKAISSASSPQSPGDALRRVFECISSGIILKGSPGLLDPCEKDPFDTLATMTDQQREDITSSAQFALRLLAFRQIHKVLGMDPLPQMSQRFNIHNNRKRRRDSDGVDGFEAEGKKDKKDYDNF,not soluble
9,MTCARCGYVREDLTLFDRVFVCPKCGWIVDRDYNASLNILRRSGSERPSVWSSAFYRWQGGAMKQEALSVRGGLEHHHHHH,not soluble
10,MGSDKIHHHHHHMRIFDAHCDALLKLWEDPAREYTDDPAIEANAVRLMEGGVRAQCFAIFVGPNIPFDQKFQVALQQAELFHEKILKKHPQFSFIERWDDLLTLDADQIGAILTLEGADPFGDDPTKLKTLYRLGVRSLGLTWNQANLCADGVGEPRGGGLTEWGKAVVSLNNEHHVLTDVSHLSERGFWDVIEYAQFPVATHSNAKAICKHRRNLTDAQLKALIEAGGFIGIVFHPHFLTGTDDASIDDVMKHIEHICSLGGQKHVGFGSDFDGIPCFVDGLEHAGRFQWFMDELLKRYDEELVRGFAWDNFLKATPISYV,not soluble
11,MPGIDIVIVNWNSGNQLRECLRSIGNLVGEAEPLTVTVVDNASCDGSADGLPEPSCPLRVIRNRANLGFGRASNLGAREGSADYLLFLNPDTRLHPGALSIPLGFMESETGRHVGICGVQCLDETGGVARCCARFPTAWRLVGQALGLDRLFPRWIPPHFLGEWPHDSDRDVDQVIGAFFFVRRAVFEQLGGFDERFFVYYEDLDFALRARRAGWGSRYLAGARIFHRGGGVSRQISARRLHYLTHSKLRYARKHFAGIDAFLVSAAVLLLEPLARSAYALGRGRPGEFADTWKAFGGLYASLCRPGENGRLEHHHHHH,not soluble
12,STGVPATDLQQSIMKNVQPIELYFDNELVTDCSALGVYDNSYLVPLHLFEFDFDTIVLGGRHYKKAECEKVEFELEVNGDMVSSDACLLRVPSGPKVRNIVHLFTNEIELKKMTQVTGIMNSPHQARTVFFGSFLTVRKSILTSDGTVMPNVLSYAAQTSRGYCGAAIVAGSPARIIGIHSAGTGSVAFCSLVSKDALERTLPQKQ,not soluble
13,MGSDKIHHHHHHMQREEWFHRAVIYQVDSSLFYDANGDGFGDLAGIRQKLHYIRSLGATVLWLTPFYLTPLQDDGYDISDHLQPDPRFGTIADVIELIARARELGLRVIVELVIQHTSAQHPWFQAARRDPRSPWRPYYLWADRPPENDDPPMFPGVEESVWRWDEQAGQYYRHMFYHHEPDLNLAHPPVIAEIENIITFWLQAGVSGFRLDAASHLVKQAGKGDETRGYPLLTHLRQVVQRLNPDAILLGEVDVAVEDYRHYFGQGDRLQMVLNFWLNKYLYLSLAQQRAAPVVKALQAMVTPPDGCCFVNWLRNHDELDLEGIGERNKRQVIRTFAPDKSMSVYQRGVRRRLAPMLDGDTRRIALAHAILLALPGVPVMRYGDEIGMGDDLSLPERYAVRTPMQWSAAANAGFSRAARDDLPVKPVASGRFRYQRINVETALRHPRSLLHRVRNMVLARTEYTEPGSLPFTLLTLKPDAVLGLLYRSESREVLMLANCSQQAVEVLLPPLAEGYWSPILEDKLYQDGLHGGKDARLALSGYGYRWFSRSLS,not soluble
14,MTVIQNIPNSLCKGLNTFSKNYLQNCKRCLTFFYELCGIICKKIEIMKGYERATKEEINDRLRIEENCHAQVERIIYIRHLCNLNLEEAADVTNLSISTLSRYENEVTKCSVQSLITIYYHYQKYLYEQHIPFDKNLFLIDMNSFHN,not soluble
15,MGSDKIHHHHHHMEERVVVEGLTGGYRPNKPVLHDLHLKIRANELVGLIGLNGAGKSTTIKHILGLMEPHKGSVMINGNTITTDRETYRRSLAYIPETPILYEELTLWEHMELTALAYGIERKAFEERSKLLLDEFRMTKMKHWYPSHFSKGMRQKVMIICAFLIDPPVYIVDEPIVGLDPIGIQSFLQLLATKKKNGAAVLMSTHILATAERYCDRFIILNRGRIVLEGTLESMRAELNMPDATLDDIYIEMTKEESQ,not soluble
